We go through one molecule from patent US20140011978A1 (EPFL TTO, published 2014).

Test [1] has as its target T1, PDGF-AB (UniProt P04085 87-211; P01127 82-190, limits assumed).
T1 construct: The name implies a heterodimer of A and B chains
Nature of the test: ELISA, cytokine coated, Fg β15-66 in solution (methods as Example 3). As for the experimental part:
(§1) ELISA plates were coated with cytokines or BSA and further incubated with TNC III1-5 to analyze binding of TNC III1-5 to a wide variety of cytokines. […] A large amount of heparin (4 μM) impaired binding of TNC III1-5 to these cytokines. Results are depicted in FIG. 3. Method: 50 nM of cytokine was coated for (1 hr, 37° C.). After blocking with 2% BSA (1 hr, RT). 100 nM TNC III1-5 was applied in PBST (0.05% tween, 0.1% bovine serum albumin (BSA)) (1 hr, RT). TNC III1-5 was detected with horseradish peroxidase (HRP)-anti-HIS in PBST (1 hr, RT) and developed with 3,3′,5,5′-tetramethylbenzidine (TMB), a soluble colorimetric HRP […]. Addition of sulfuric acid stop solution changes the color to yellow, enabling accurate measurement of the intensity at 450 nm using a spectrophotometer or plate reader. […] Heparin (4 μM) was added to TNC III1-5 to test the effect of blocking the heparin binding site of TNC III1-5, which has been defined as domain TNC III5 (Weber, Zimmermann, et al., 1995).
(§2) ELISA plates were coated with cytokines or BSA and further incubated with Fg β15-66 to analyze binding of […] to a wide variety of cytokines. […] Results are depicted in FIG. 4. Method: The methods were analogous to those used in Example 3.
(In general: An ELISA detects its analyte on a solid surface through an enzyme-linked reagent.)

Test [2] has as its target T2, FGF-5 (UniProt P12034 21-268, limits assumed).
T2 sequence (looked up): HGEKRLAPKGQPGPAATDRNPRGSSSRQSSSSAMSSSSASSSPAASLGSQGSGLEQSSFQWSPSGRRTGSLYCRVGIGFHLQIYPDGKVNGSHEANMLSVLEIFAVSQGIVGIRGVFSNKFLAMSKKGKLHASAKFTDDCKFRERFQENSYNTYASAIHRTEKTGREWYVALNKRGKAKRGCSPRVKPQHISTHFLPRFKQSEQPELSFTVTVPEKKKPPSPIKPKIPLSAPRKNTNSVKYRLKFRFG
The test is described as above. The protocol: as §1, §2

The target of test [3] is T3, BMP-2/7 (UniProt P12643 283-396; P18075 293-431).
T3 construct: The name implies a BMP-2/BMP-7 heterodimer
Described as above. As for the experimental part:
as §1, §2

Test [4] has as its target T4, TGF-β3 (Natural form is a disulfide-linked homodimer; one protomer is given.).
T4 chain: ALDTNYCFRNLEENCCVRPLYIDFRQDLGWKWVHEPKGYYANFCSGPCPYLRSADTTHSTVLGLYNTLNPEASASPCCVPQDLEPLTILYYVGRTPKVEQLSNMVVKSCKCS
The test can be described thus: ELISA: growth factor coated, Fg fragment in solution, A450 (methods analogous to Example 3). As for the experimental part: as §1, §2

In test [5] the target is EGF. The description is as above. The protocol: as §1, §2
Test [6] deals with T5, NT-3 (UniProt P20783 139-257).
T5 sequence (looked up): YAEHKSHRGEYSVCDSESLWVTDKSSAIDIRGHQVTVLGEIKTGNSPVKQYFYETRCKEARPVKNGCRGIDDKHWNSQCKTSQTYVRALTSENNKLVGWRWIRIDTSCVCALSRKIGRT
The test is described as above. As for the experimental part:
as §1, §2

Test [7] has as its target BMP-2 (UniProt P12643 283-396). The test is described as above. The protocol: as §1, §2
Test [8] addresses PDGF-DD (UniProt Q9GZP0 250-370). Described as above. As for the experimental part:
as §1, §2

Test [9] deals with VEGF-A165 (UniProt P15692-4 27-191). The test is described as above. As for the experimental part: as §1, §2
For test [10], the target named is T6, FGF-6 (UniProt P10767 38-208, limits assumed).
T6 sequence (looked up): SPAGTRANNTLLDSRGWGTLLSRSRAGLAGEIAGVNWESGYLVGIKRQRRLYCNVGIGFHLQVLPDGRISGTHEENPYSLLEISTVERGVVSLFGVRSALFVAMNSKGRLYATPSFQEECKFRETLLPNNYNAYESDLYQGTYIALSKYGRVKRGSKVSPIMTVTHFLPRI
The description is as above. The protocol:
as §1, §2

Test [11] addresses T7, FGF-7 (UniProt P21781 32-194).
T7 sequence (looked up): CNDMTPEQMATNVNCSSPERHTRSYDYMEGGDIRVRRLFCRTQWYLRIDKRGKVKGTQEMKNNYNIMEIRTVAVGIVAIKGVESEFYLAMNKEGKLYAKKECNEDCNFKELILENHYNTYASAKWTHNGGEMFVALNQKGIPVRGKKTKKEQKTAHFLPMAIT
The test is described as above. The protocol:
as §1, §2

For test [12], the target named is T8, FGF-10 (UniProt O15520 38-208).
T8 sequence (looked up): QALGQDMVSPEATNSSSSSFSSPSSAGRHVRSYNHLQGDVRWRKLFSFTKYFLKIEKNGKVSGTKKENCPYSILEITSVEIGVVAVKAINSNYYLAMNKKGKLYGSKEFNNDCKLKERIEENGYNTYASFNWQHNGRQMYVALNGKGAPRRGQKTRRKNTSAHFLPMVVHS
The test is described as above. The protocol: as §1, §2

Sequence of BMP-2 (P12643 283-396 limits assumed): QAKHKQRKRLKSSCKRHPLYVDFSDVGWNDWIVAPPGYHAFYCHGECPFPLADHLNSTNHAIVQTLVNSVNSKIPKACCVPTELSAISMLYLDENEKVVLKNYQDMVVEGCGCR
T3 sequence (P12643 283-396, chain 1 of 2): as the sequence (P12643 283-396 limits assumed) above
T3 sequence (P18075 293-431, chain 2 of 2): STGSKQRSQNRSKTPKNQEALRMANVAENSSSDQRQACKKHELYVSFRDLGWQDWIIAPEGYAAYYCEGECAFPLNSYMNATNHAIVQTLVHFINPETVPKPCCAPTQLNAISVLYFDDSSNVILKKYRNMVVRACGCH
T1 sequence (P01127 82-190 limits assumed, chain 2 of 2, other chains not shown): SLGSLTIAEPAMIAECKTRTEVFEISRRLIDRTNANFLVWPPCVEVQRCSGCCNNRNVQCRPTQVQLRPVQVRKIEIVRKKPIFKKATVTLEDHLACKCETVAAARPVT
Sequence of PDGF-DD (Q9GZP0 250-370): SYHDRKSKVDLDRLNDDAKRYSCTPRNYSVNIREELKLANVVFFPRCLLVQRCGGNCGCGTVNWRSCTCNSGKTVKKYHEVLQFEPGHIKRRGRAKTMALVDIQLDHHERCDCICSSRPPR
Sequence of VEGF-A165 (P15692 other isoform, or with tags, fused parts or gaps limits assumed): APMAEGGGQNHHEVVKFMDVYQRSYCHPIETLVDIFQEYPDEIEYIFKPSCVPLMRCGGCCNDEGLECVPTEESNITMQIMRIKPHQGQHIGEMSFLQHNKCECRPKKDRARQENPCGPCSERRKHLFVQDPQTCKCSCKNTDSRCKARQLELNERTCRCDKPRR

B1: Fg β15-66 (other)
chain: GSNQEQVSPLGHRPLDKKREEAPSLRPAPPPISGGGYRARPAKAAATQKKVERKAPDAGGCGHHHHHH
notes: Made as a GST fusion; GST was cleaved off; also called TG-Fg β15-66; fibrinogen β15-66 domain
As to B1, the binding result is given as “binds” in test [1]; “binds” in test [2]; “binds” in test [3]; “no binding” in test [4]; “no binding” in test [5]; “binds” in [6]. Also, the binding result in [7] is listed as “binds”; in test [8] it was “binds”; in test [9], “binds”; in test [10], “no binding”; in [11] it was “binds”; in test [12] it was “binds”.
